Numbering of substitutions follows the chain as printed.
B1: mouse monoclonal antibody 2F7 (antibody, V domains shown)
VH: DVKLVESGGGLVKLGGSLKLSCAASGFTFSSYYMSWVRQTPEKRLELVATINSNGGSTYYPDTVKGRITISRDNAKNTLQLQMSSLRSEDTALYYCVRQNYEGAYWGQGTLVTVSA
VL: DVLMTQTPLSLPVTLGDQASISCRSSQSIVHSNGNTYLEWYLQKPGQSPKLLIYKVSNRFSGVPDRFSGSGSGTDFTLKISRVEAEDLGVYYCFQSSHVPWTFGGGTKLEIK
notes: Mouse hybridoma antibody; also called Mouse 2F7
B2: mouse monoclonal antibody 3E8 (antibody, V domains shown)
VH: B1 VH
VL: B1 VL
notes: Mouse hybridoma antibody; also called Mouse 3E8
B3: rabbit monoclonal antibody 1 (1H3-1K3) (antibody, V domains shown)
VH: QSVEESGGRLVTPGTPLTLTCTVSGFSLSRYYMTWVRQAPGKGLEYIGVIIPGGTTYYASWAKGRFTISKTSTTVDLRITSPTTEDTATYFCAGGPTGNSHFTLWGQGTLVTVS
VL: VMTQTPSSKSVPVGGTVTINCQASESVYNNNHLSWYQQKSGQPPKLLIYEASKLESGVPPRFKGSGSGTQFTLTISDVVCDDAATYYCSGYKRVTTDGIAFGGGTEVVVK
notes: Recombinant; also called Rabbit 1; clone 1
B4: rabbit monoclonal antibody 17 (17H3-17K3) (antibody, V domains shown)
VH: QEQLVESGGGLVQPGASLTLTCTASGFSFSSSYVMCWVRQAPGKGLEWITCSDTGINTWYASWAKGRFTISKTSSTTVTLQMTSLTAADTATYFCARRYTGDTYLGNFNLWGQGTLVTVS
VL: AQVLTQTPASVSAAVGGTVTINCQASQSVYKNNYLSWYQQKPGQPPKLLIYKASTLASGVPSRFKGSGSGTQFTLTISDVQCDDAATYYCAGGWRSLNAFGGGTEVVVK
notes: Recombinant; also called Rabbit 17; clone 17
B5: rabbit monoclonal antibody 14 (14H1-14K2) (antibody, V domains shown)
VH: QEQLEESGGDLVKPEGSLTLTCTASGFSFSSNYVMCWVRQAPGKGLEWVACIWFAGIVDTTYYATWAKGRFTISKTSSTTVTLQMTSLTAADTATYFCARNPVGSVNLWGQGTLVTVS
VL: VMTQTPSSKSVPVGGSVTINCQASESVYSNNRLSWYQQKPGQPPKLLIYYASTLESGVPSRFKGSGFGTHFTLTISGAQCDDAATYYCAGWRGARTDGVDFGGGTEVVVK
notes: Recombinant; also called Rabbit 14; clone 14
B6: rabbit monoclonal antibody 38 (38H1-38K1) (antibody, V domains shown)
VH: B3 VH with L28F, R30A, Y46F, I50T, G53I, T55R, D76H, R78K, T89A
VL: B3 VL with G15D, H32Q, S40P, E50Q, P60S, S89A, R93S, V94P
notes: Recombinant; also called clone 38

Biological target: T1, DAGWGNLc (SEQ ID NO: 9) peptide conjugated to bovine serum albumin (human; bovine, UniProt P02769 25-607, N-terminus acetylated; C-terminal Cys conjugated to BSA)
T1 construct: TDP-43 residues 65-71 plus an added C-terminal cysteine; also called Peptide conjugated to bovine serum albumin (BSA)
Test: SPR, peptide-BSA immobilized (about 50 RU), antibody injected, Langmuir 1:1 fit
Procedure: Surface plasmon resonance (SPR) analysis was used to measure the binding kinetics of monoclonal antibodies to the peptide epitope. Peptide conjugated to bovine serum albumin (BSA) was immobilized at a very low density (approximately 50 RUs) on flow cells of a sensor chip. Purified mouse or rabbit monoclonal antibodies diluted 4-fold from 31.25 nM to 0.24 nM were injected sequentially over the surfaces for approximately 5 min followed by dissociation in buffer and surface regeneration. Binding parameters were calculated using kinetic curve fitting and a Langmuir 1:1 interaction model.

T1 sequence (P02769 25-607 limits assumed): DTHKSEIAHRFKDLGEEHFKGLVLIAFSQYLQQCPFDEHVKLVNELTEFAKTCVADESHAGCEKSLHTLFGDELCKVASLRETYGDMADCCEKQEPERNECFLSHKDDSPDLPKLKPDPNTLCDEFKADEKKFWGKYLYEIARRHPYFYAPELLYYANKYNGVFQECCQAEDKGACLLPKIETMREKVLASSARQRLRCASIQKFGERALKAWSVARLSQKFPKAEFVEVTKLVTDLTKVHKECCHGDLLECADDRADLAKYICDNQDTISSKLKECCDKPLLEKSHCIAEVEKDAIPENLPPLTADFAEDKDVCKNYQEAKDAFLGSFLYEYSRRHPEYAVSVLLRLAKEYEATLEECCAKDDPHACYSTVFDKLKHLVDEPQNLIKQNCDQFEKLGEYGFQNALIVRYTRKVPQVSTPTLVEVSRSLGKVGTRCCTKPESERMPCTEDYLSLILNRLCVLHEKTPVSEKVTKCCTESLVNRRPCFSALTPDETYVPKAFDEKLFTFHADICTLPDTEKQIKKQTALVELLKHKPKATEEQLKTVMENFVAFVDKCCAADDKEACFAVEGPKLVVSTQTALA

Binder	Kd	koff	kon
B1	622 pM	0.00176 s⁻¹	2.83e+06 M⁻¹ s⁻¹
B2	722 pM	0.002 s⁻¹	2.77e+06 M⁻¹ s⁻¹
B3	62 pM	2.5e-05 s⁻¹	403000 M⁻¹ s⁻¹
B4	91.9 pM	4.32e-05 s⁻¹	470000 M⁻¹ s⁻¹
B5	15.1 pM	9.04e-06 s⁻¹	599000 M⁻¹ s⁻¹

Biological target: T2, HA-tagged wild-type human TDP-43 with the original NLS sequence (WT-TDP43) (human, UniProt Q13148 1-414)
T2 construct: whole, on cells; Overexpressed inside transfected HEK293FT cells; also called wildtype TDP-43-HA; WT nuclear TDP-43-HA; not shown: HA tag
Test: immunocytochemistry, transfected HEK293FT cells; column: Binding to nuclear WT TDP-43

T2 sequence (Q13148 whole entry): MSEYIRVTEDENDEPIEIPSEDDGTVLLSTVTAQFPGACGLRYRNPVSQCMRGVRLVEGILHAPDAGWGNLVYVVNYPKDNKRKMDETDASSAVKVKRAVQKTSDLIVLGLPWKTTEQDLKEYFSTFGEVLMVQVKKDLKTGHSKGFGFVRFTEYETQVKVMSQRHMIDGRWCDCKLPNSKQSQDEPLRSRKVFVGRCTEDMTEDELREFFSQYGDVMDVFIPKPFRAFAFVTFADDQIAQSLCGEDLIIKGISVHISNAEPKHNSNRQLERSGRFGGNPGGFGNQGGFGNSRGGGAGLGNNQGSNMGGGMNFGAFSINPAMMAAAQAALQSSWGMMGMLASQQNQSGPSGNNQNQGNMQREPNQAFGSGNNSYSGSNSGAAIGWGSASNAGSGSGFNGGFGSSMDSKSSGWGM

Binder	binding result
B5	no binding (tested: 10 ug/ml)
B6	no binding (tested: 10 ug/ml)

Biological target: T3, endogenous TDP-43 of HEK293FT cells (human, UniProt Q13148 1-414)
T3 construct: whole, on cells; Two states of the same protein are tested: nuclear in cells transfected with empty vector, and in the stress granules of cells stressed with sodium arsenite; the state is named in each row; also called endogenous, nuclear WT TDP-43; TDP-43 in physiologic stress granules
Test: immunocytochemistry, arsenite-stressed HEK293FT cells; column: Binding to stress granules

T3 sequence (Q13148 whole entry): as above

Binder	binding result
B5	no binding (tested: 10 ug/ml)
B6	no binding (tested: 10 ug/ml)
